Measurements: the DeepSol protein solubility set

assay: soluble on expression in E. coli; label from the status in PepcDB or PDB records

Row | Sequence | soluble on expression in E. coli
1 | SRVKKNVLDYNAWAEGTLKGIKQEKKAYKERHRLFFEGLSEAEKVEYATKMAHDAQIYDEPEFDPQELQSEYYRGLYAFDNRKNNVDSYK | soluble
2 | MIDLHTHTIFSDGELIPSELVRRAVIHGYEAIALTDHADYTNLEQLLDAAKKAKYLEEEWDIRVLSGVELTHVPPRKIAPMAKKAKELGAEIVVVHGETISEPVAQGTNAASAACEYVDILAHPGLISEEDVRTAAENNVFLELTARNGHNRTNGHVARLALEFGATLVVNTDTHAPENLITDETALKIAMGAGL | not soluble
3 | MAHHHHHHMKALKLFTNRICPFCQRVLITAKEKRVTLEEVEVPLGDDMPQWYKELNPRETVPMLQVDGKKCMIESDLISRYIDRISSPENALIGSSPYQRHRVEFFLSEIGDLVKAYFGLVRDPFNEEKRKSVDHNTAYIEGIIAEHQGDGPYFLDDTFSMAEVMVVPFLACFRPVLSYYCGYDIFHEAPRLKKMYVTSMQRTTVKETISKPEEYIIGFKSKVPKSHVTWSLAPGYVLFVNKYSPFSDRPRLACALKNIDLPMLEIDLKQLPSWFRWFNQRETVPTLLTPRGTYVHESQLIVHYLDDGFPEHGPALLPKDADGSYHVRFVESNVDYFMDAMYSLIKDPKNTNAKEEFDWAAGELEKLLAEHQFGEGPFFGGATMNAADVSLLPMLVHLKACTPDLTEGQDLLANYKLLAAAAEAGLTSEAGKKVFLSLSEYSSIYKTFLRPSS | soluble
4 | VRPLNCIVAVSQNMGIGKNGDLPWPPLRNEFKYFQRMTTTSSVEGKQNLVIMGRKTWFSIPEKNRPLKDRINIVLSRELKEPPRGAHFLAKSLDDALRLIEQPELASKVDMVWIVGGSSVYQEAMNQPGHLRLFVTRIMQEFESDTFFPEIDLGKYKLLPEYPGVLSEVQEEKGIKYKFEVYEKKD | soluble
5 | MFDPREKIALFIDGANLYAASKSLGFDIDYRKLLKAFQKRGYLLRAYYYTALIEDQEYSSIRPLIDWLDYNGYKVVTKPAKEFTDSLGRRKIKGNMDIELAIDAMEQSESVDHLVIFSGDGDFTTLVEALQRKGRKVSVVSTMSTQPPMIADDLRRQADHFIDLATLRGEIGREPSERVQRPVEPVADDVEL | not soluble
6 | SKKLLFQFDTDATPSVFDVVVGYDGGADHITGYGNVTPDNVGAYVDGTIYTRGGKEKQSTAIFVGGGDMAAGERVFEAVKKRFFGPFRVSCMLDSNGSNTTAAAGVALVVKAAGGSVKGKKAVVLAGTGPVGMRSAALLAGEGAEVVLCGRKLDKAQAAADSVNKRFKVNVTAAETADDASRAEAVKGAHFVFTAGAIGLELLPQAAWQNESSIEIVADYNAQPPLGIGGIDATDKGKEYGGKRAFGALGIGGLKLKLHRACIAKLFESSEGVFDAEEIYKLAKEMA | soluble
7 | MSLKKALFLILDQYADWEGVYLASALNQREDWSVHTVSLDPIVSSIGGFKTSVDYIIGLEPANFNLLVMIGGDSWSNDNKKLLHFVKTAFQKNIPIAAICGAVDFLAKNGLLNNHSHTGNFVYLWKDYKQYKPISSFVEKQAVRDKNLVTANGTAPIEFTNLILEMIDFDTPENIEKMMYMNRYGFYHFCDKYGNPFVEGHHHHHH | soluble
8 | MKRFFALVHKDEDSAFGVQFPDFEGLFSAADEEENLIINATEALQLYCEDMDTVPVPLKFEEVIQQKAVKKALSEGAFLIQVPFIENDSEVVRTNISIERGLLRAIDNCAQERGLTRSAFLATAARHELNI | not soluble
9 | PKKDWLSYVVSSKARNKIKQQLRLQMESSIGVVKELLNRRLKNRKLPFEEAVFTRVVRRKGFKHLTDFYMEIAADRLDVQEVLELYSHELEEE | not soluble
10 | MAHHHHHHMICEVLQCNRYPPCCGQYPNGEVNVVLPRSVRGDDLFVLQSLVRCDRVGLSHSGTLMELALMIHAARASSAARITAVIPYISFTESVSSMAAVAEILESMGCQHVITVDMPIDQVEGMFSVPLELISARYEFVQYIANQLTAEGHDFRNITVVAPNGAGVHRAKNFADALMQYKKLSPDEQFVPLCTAVRRQVYRGLQDTVLNINHCGANVGSTRAFEQALLQQEQGICAIQDDGDTTITSEGIDLVGDVQGKLCIVVDTSVDEATEICQTACKLREEGASRIILIATHFIISGRAVERLIESPIDLIVVTDSVEHDEVFKNPHIARRLRVLPIAPLLARAIEKLHTENSLTTLFEK | not soluble
